Measurements from patent publication US20220096655A1, “PLASMA POLYMER NANOPARTICLES CARRYING AGENTS” (THE HEART RESEARCH INSTITUTE LTD, priority 2019, published 2022).
“And” between values parts separate entries of the source, which are not always exact repeats. Identical values can stand only once.

B1: IL-4: carrier free recombinant rat IL-4 (R&D systems), anti-inflammatory cytokine (protein, UniProt P20096 25-147, looked up)
Interleukin-4: CNDSPLREIINTLNQVTEKGTPCTEMFVPDVLTATRNTTENELICRASRVLRKFYFPRDVPPCLKNKSGVLGELRKLCRGVSGLNSLRSCTVNESTLTTLKDFLESLKSILRGKYLQSCTSMS
B2: NP3+IL-4: recombinant rat IL-4 conjugated to plasma polymer nanoparticles (nanoP3, 200 nm) (conjugate, UniProt P20096 25-147, looked up)
Interleukin-4: B1 Interleukin-4
modifications: conjugated to 200 nm plasma polymer nanoparticles
B3: IL-10: carrier free recombinant rat IL-10 (R&D systems), anti-inflammatory cytokine (protein, UniProt P29456 19-178, looked up)
Interleukin-10: SKGHSIRGDNNCTHFPVSQTHMLRELRAAFSQVKTFFQKKDQLDNILLTDSLLQDFKGYLGCQALSEMIKFYLVEVMPQAENHGPEIKEHLNSLGEKLKTLWIQLRRCHRFLPCENKSKAVEQVKNDFNKLQDKGVYKAMNEFDIFINCIEAYVTLKMKN
B4: NP3+IL-10: recombinant rat IL-10 conjugated to 200 nm plasma polymer nanoparticles (nanoP3) (conjugate, UniProt P29456 19-178, looked up)
Interleukin-10: B3 Interleukin-10
modifications: conjugated to 200 nm plasma polymer nanoparticles

What was measured:
[1] = Tracking of IL-4 retention in the isolated vessel (Cy5 tag), rat carotid injury model; assay type: in vivo; conditions: for IL-4 retention in the vessel after restoration of blood flow: 2 minutes incubation in isolated carotid
Experimental: A) Procedural workflow of vessel injury: 1. Microintraocular forceps are inserted into ligated/isolated carotid rat segments. 2. Forceps are expanded and rotated 360° to mimic balloon injury overexpansion injury/denudation. 3. Forceps are removed, and through the same incision a small gauge catheter is inserted. 4. NP3+IL-4 solutions are delivered through the catheter and are allowed to incubate in the isolated vessel for 2 minutes. 5. The incision is sutured, and blood flow is restored.
(§1) Study approval was obtained from the Sydney Local Health District Animal Welfare Committee (protocol number 2017/006). Experiments were conducted in accordance with the Australian Code of Practice for the Care and Use of Animals for Scientific Purpose. Rats (Sprague Dawley, male, 7 weeks) were purchased from Laboratory Animal Service (NSW, Australia). Rats were given a single intramuscular injection of ketamine (75 mg/kg) and medetomidine (0.5 mg/kg) to induce anaesthesia. The common carotid artery was isolated and double ligations were spaced roughly 1 cm apart. A small incision at the distal end was made, through which microintraocular forceps (World Precision Instruments, USA) were inserted, expanded to their full width and rotated 360 degrees to injured the entire luminal surface area of the vessel. This was repeated 5 times before withdrawing the forceps, and inserting a 22G catheter into the same incision. Through the catheter, IL-4 or IL-10 bound nanoP3 solutions were injected at a concentration of 2×10^8 nanoP3 in a total volume of roughly 80 μl of RPMI media. The nanoP3 solutions were allowed to incubate for 2 minutes and then withdrawn completely from the vessel. The incision was sutured closed using a 9-0 nylon suture, and both ligations were undone to re-establish blood flow. The isolated vessel segments were then explanted 14 days later for pathological evaluation.

[2] = Interleukin surface binding to nanoP3 (fluorescence of Cy5 label in leftover washes); assay type: physicochemical; conditions: ultra-pure water pH 6.5, room temperature; for maximum binding efficiency of nanoP3 to interleukin in solution: Cy5-tagged interleukin; for loading capacity, further increased loading: at lower binding efficiency
Experimental: Carrier free recombinant rat IL-4 and IL-10 (R&D systems, USA) were dissolved in phosphate buffered saline (PBS) at a stock concentration of 100 ng/μl. To establish binding kinetics, each interleukin was tagged with a Lightning-link Cy5 antibody label (Novus Biologicals, USA). For every 1×10^9 nanoP3 (200 nm diameter) in ultrapure water (Thermofisher, USA), either 1.42 μg of IL-4 or 1.32 μg of IL-10 was added. Additional water was added to reach a total reaction volume of 1 ml and left to incubate for a 1 h at room temperature. Binding kinetics were performed on a Clariostar monochromator microplate reader (BMG Labtech, Germany) using the leftover washes following 1 h incubations.
The binding efficiency of nanoP3 to IL-4 in solution was maximum at 99%, corresponding to a loading capacity of 0.5±0.01 μg/10^9 particles. […] The maximum binding efficiency of nanoP3 to IL-10 was 99.9%, representing a total mass loading capacity of 0.5±0.02 μg/10^9 particles. Further loading of IL-10 onto nanoP3 was observed up to 0.80±0.02 μg/10^9 particles corresponding to a binding efficiency of 40%. All experiments were performed in ultra-pure water (pH=6.5) at room temperature. The incubation time was 30 minutes.

[3] = system: rat carotid model of vessel injury; assay: Rat carotid injury and nanoP3 delivery model (neointima, endothelium, M2 macrophages); assay type: in vivo; conditions: for repair of the damaged endothelium (immunostaining, von Willebrand factor): 14 days after injury; for vascular occlusion (neointima formation percentage of cross-sectional lumen area): denuded injury roughly 60%; for vessel re-endothelialisation / healing (von Willebrand factor staining): 200 nm NP3, FIG. 8
Experimental: as §1
After 14 days in vivo, vessel explants were fixed in 4% PFA overnight and subjected to ethanol dehydrations prior to paraffin embedding. Embedded vessel segments were then sectioned in 5 μm thick slices in the longitudinal direction. M2 macrophage and luminal endothelium staining was conducted using anti-CD206 (Abcam, USA) and anti-VonWillebrand Factor (Sigma, USA) antibodies. Fluorescent imaging was conducted by using Alexa-fluor 594 secondary antibodies. Staining of neointima formation was conducted using hematoxylin & eosin (H&E) staining. Normalised hyperplasia was calculated as the total area of hyperplasia divided the area of the original vessel lumen.
Using a rat carotid model of vessel injury, the efficacy of NP3+IL-10, NP3+Sirolimus or NP3+Sulindac to treat cardiovascular pathology was determined in vivo. Carrier -free recombinant rat IL-10 (1.34 μg/10^9 nanoP3; R&D systems, USA), Sirolimus (2.50 μg/10^9 nanoP3; rapamycin, Sigma-Merck, USA), Sulindac (3.05 μg/10^9nanoP3; Sigma-Merck, USA), or a Cy7 fluorescent tag (5.03 μg/10^9 nanoP3; CF750 Antibody Label, Sigma-Merck, USA) were diluted in sterile water and conjugated to 2×10^9 nanoP3.
The rats were subjected to vessel injury as described in Example 3 except that through the catheter, IL-10, Sirolimus or Sulindac bound nanoP3 solutions were injected at a concentration of 2×10^8 nanoP3 (IL-10, 0.268 μg; Sirolimus, 0.5 μg; Sulindac 0.61 μg; Cy7, 1.01 μg), in a total volume of roughly 80 μl of RPMI media.

[4] = system: Raw 246.7 mouse macrophage cells; assay: M2 macrophage polarisation in vitro (SEM, confocal arginase-1 staining); assay type: cell-based; conditions: 1×10^5 nanoP3/well, 24 hours; for expression of arginase-1 (ARG-1), confocal immunostaining: vs control and NP3 only; for M2 activation of macrophages (SEM spreading and surface roughness): vs untreated and NP3 only
Experimental: The inventors sought to investigate the effect of NP3+IL-4 on macrophage polarisation in vitro. Raw 246.7 mouse macrophage cells (ATCC, USA) were cultured at 5×10^3 cells/well in a 96 well plate. IL-4 bound nanoP3 was added into macrophage cultures at a concentration of 1×10^5 nanoP3/well. After 24 hours, macrophages were fixed in 4% paraformaldehyde prior to scanning electron microscopy (SEM) and confocal imaging. Confocal staining was performed using an Actin cytoskeletal stain (Abcam, USA) and an anti-arginase-1 antibody (Abcam, USA).
Raw 246.7 mouse macrophage cells (ATCC, USA) were cultured at 5×10^3 cells/well in a 96 well plate. IL-10 (1.34 μg/10^9 nanoP3) and Sulindac (3.05μg/10^9nanoP3) were bound to nanoP3 as described in Example 4.
NP3+IL-10 or NP3+Sulindac was added into macrophage cultures at a concentration of 1 x 10^5 nanoP3/well. After 24 hours, macrophages were fixed in 4% paraformaldehyde prior to scanning electron microscopy (SEM) and confocal imaging. Confocal staining was performed using an Actin cytoskeletal stain (Abcam, USA) and an anti-arginase-1 antibody (Abcam, USA).

[5] = system: rabbit model of iliac arterial injury; assay: Rabbit iliac injury and nanoP3 delivery model; assay type: in vivo; conditions: 200 nm NP3, over seven days
Experimental: Study approval was obtained from the University of Sydney Animal Ethics Committee (AEC) protocol 2019-1653. Experiments were conducted in accordance with the Australian Code of Practice for the Care and Use of Animals for Scientific Purpose. An incision (˜1cm length) was made in the middle of the inguinal skin and the right femoral artery exposed after the blunt dissection of the muscle layers. The artery was ligated on the distal end and above the ligation, a small incision made to allow a 5F sheath (Abbott, TREK Coronary Dilatation Catheter, 3.25 mm) to be inserted. The sheath was held in place with sutures (3-0, silk). A 0.014 inch guide wire was inserted through the sheath, retrograde into the abdominal aorta. A 3.25 mm angioplasty balloon catheter was then inserted over the guide wire and advanced into the aorta. The location of NP3 delivery and the surrounding vasculature was determined by intravenous injection of contrast fluid ISOVUE 370 or OMNIPAQUE (75.5 g/100 ml), 25%-50% (v/v) contrast/saline prior to angiography.
Denudation of the iliac artery was performed by inflating the balloon at the bifurcation of the abdominal aorta to 3.1 mm diameter and withdrawn to the femoral artery slowly, 3 times (1 min per denudation). Through the main incision, the same balloon was re-inserted into the injured iliac to the bifurcation and inflated to 6-8 atm to occlude proximal blood flow. Immediately after blood flow has been occluded, a IL-10 nanoP3 solution (3×10^8 total 2 ml) was delivered through the sheath, inflating the artery, and allowed to incubate for 2 minutes before aspirating remaining solution back through the sheath. The sheath was removed, the femoral artery permanently ligated by 3-0 silk suture, followed by removal of the sheath. The exposed area was closed by 3-0 silk suture with individual stiches and double layer sutures.

Molecule	IL-4 retention in the vessel after restoration of blood flow [1]	binding efficiency at further increased loading [2]	loading capacity at maximum binding efficiency [2]	maximum binding efficiency of nanoP3 to interleukin in solution [2]	loading capacity, further increased loading [2]	repair of the damaged endothelium (immunostaining, von Willebrand factor) [3]	vascular occlusion (neointima formation percentage of cross-sectional lumen area) ([3]; two weeks)	expression of arginase-1 (ARG-1), confocal immunostaining [4]	M2 activation of macrophages (SEM spreading and surface roughness) [4]	other results
B1	immediately washed away	53.1%	0.5±0.01 μg/10^9 particles	99% and 100%	1.1±0.02 μg/10^9 particles					
B2	significantly retained					restore full endothelium integrity	approximately 35%	significantly upregulated	increases spreading (top row) and surface roughness	M2 activation of macrophages (SEM spreading and surface roughness) ([4]; listed as nanoP3-IL4): causes M2 activation; persistence of IL-4 at substantial levels in the vessel [1]: ≥ 5 days
B3		40%	0.5±0.02 μg/10^9 particles	99.9% and 100%	0.80±0.02 μg/10^9 particles	absent				effect on vascular occlusion ([3]; two weeks): no significant effects
B4						restore full endothelium integrity	~20%	significantly upregulated	causes M2 activation	vessel re-endothelialisation / healing (von Willebrand factor staining) [3]: stimulate healing; vessel re-endothelialisation / healing (von Willebrand factor staining) ([3]; listed as NP3 delivered IL-10): stimulates vessel healing; vessel inflammation/macrophage polarisation (CD206 co-staining with CD68) ([3]; 200 nm NP3, FIG. 9): promoting M2 macrophage polarisation; neointimal hyperplasia (H&E staining) ([3]; 200 nm NP3, compared to freely delivered agents, FIG. 7): inhibition of neointimal hyperplasia; presence of M2 macrophages in treated carotid segments (immunostaining, CD206) ([3]; 14 days, compared to denuded, NP3+IL-4 and free IL-10): significant increase; incidence of thrombosis (CD31 staining) [5]: significantly reduced; neointimal hyperplasia / occlusion (H&E staining) ([5]; vs untreated controls): reduced hyperplasia; vessel inflammation, infiltration of pro-inflammatory macrophages (CD68 staining) ([5]; vs untreated controls): reduces the infiltration of pro-inflammatory macrophages; neointimal hyperplasia / occlusion (H&E staining) ([5]; vs untreated controls, listed as IL-10+NP3): reduced hyperplasia; neointimal hyperplasia / occlusion (H&E staining) ([5]; vs untreated controls, listed as NP3+IL10): reduced occlusion
